This note sets out measurements from US20150274781A1 (UNIVERSITAET LEIPZIG, published 2015).

Read-outs that look alike come from different tables or passages of the source. Where no end group is shown, it is not given here. [ ]: non-standard residue; d: D form. d1Nal = N[C@H](Cc1cccc2ccccc12)C(=O)O; Phg = N[C@H](C(=O)O)c1ccccc1; Nva = CCC[C@H](N)C(=O)O

Common to all, as to assay: cell-based or functional assay
In assay [1] the target is T1, human ghrelin receptor (human, UniProt Q92847 1-366).
Assay [2] deals with T1, human ghrelin receptor. The source holds these as a separate data set.
Assay [3] has as its target T1, human ghrelin receptor. The source holds these as a separate data set.

T1 sequence (Q92847 whole entry): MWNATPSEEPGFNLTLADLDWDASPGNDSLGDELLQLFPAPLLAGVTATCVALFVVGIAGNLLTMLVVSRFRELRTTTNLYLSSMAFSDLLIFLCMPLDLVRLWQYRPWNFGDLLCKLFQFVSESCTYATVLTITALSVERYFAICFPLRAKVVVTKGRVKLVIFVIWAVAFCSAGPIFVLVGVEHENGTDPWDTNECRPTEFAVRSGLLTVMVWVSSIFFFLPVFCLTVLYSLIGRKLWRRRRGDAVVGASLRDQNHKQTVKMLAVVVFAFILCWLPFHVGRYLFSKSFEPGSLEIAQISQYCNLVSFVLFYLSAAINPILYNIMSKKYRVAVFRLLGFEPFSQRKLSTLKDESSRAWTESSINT

B1: KwF-(D-2-Nal)-LL-NH2 (peptide)
peptide: KXFXLL
modifications: D-Trp at 2; 2-naphthyl-D-alanine (D-2-Nal) at 4; C-terminal amide
Consider B1, for which, in assay [1], the “EC50, agonistic activity, inositol trisphosphate turnover assay in COS-7 cells transfected with the ghrelin receptor” value came to 12.6 nM.

B2: K-(D-Bpa)-FwLL-NH2 (peptide)
peptide: KXFXLL
modifications: 4-benzoyl-D-phenylalanine (D-Bpa) at 2; D-Trp at 4; C-terminal amide
Turning to B2, in assay [2], the “EC50, inverse agonistic activity, inositol trisphosphate turnover assay in COS-7 cells transfected with the ghrelin receptor” value (from here on “EC50, inverse agonistic activity”) was 169 nM and the “Emax [Δ %], inverse agonistic activity, inositol trisphosphate turnover assay” value (from here on “Emax [Δ %], inverse agonistic activity”) was 67 Δ %.

B3: KwF-(D-1-Nal)-LL-NH2 (peptide)
peptide: KXFXLL
modifications: D-Trp at 2; 1-naphthyl-D-alanine (D-1-Nal) at 4; C-terminal amide
For B3, in assay [1], the “EC50, agonistic activity, inositol trisphosphate turnover assay in COS-7 cells transfected with the ghrelin receptor” value was found to be 17.9 nM.

B4: K-(D-Phe)-FwLL-NH2 (peptide)
peptide: KXFXLL
modifications: D-Phe at 2; D-Trp at 4; C-terminal amide
Regarding B4, in assay [2], the “EC50, inverse agonistic activity” value was 241 nM and the “Emax [Δ %], inverse agonistic activity” value was 62 Δ %.

B5: K-(D-1-Nal)-(L-Nva)-wLL-NH2 (peptide)
peptide: K[d1Nal][Nva][dW]LL-NH2
modifications: N-terminus assumed
SMILES: CCC[C@H](NC(=O)[C@@H](Cc1cccc2ccccc12)NC(=O)[C@@H](N)CCCCN)C(=O)N[C@H](Cc1c[nH]c2ccccc12)C(=O)N[C@@H](CC(C)C)C(=O)N[C@@H](CC(C)C)C(N)=O
On to B5, for which, in assay [3], the “EC50, inverse agonistic activity” value is 498 nM; the “Emax [Δ %], inverse agonistic activity” value is 71 Δ %; the “x-fold (EC50) compared to K-(D-1-Nal)-FwLL-NH2” value (“x-fold (EC50)” for short) amounted to 146 fold; the “x-fold (Emax) compared to K-(D-1-Nal)-FwLL-NH2” value (“x-fold (Emax)” below) was 1.1 fold.

B6: K-(D-1-Nal)-(L-tBf)-wLL-NH2 (peptide)
peptide: KXXXLL
modifications: 1-naphthyl-D-alanine (D-1-Nal) at 2; tert-butyl-L-phenylalanine (L-tBf) at 3; D-Trp at 4; C-terminal amide
For the molecule B6, in assay [3], the “EC50, inverse agonistic activity” value was 124 nM; the “Emax [Δ %], inverse agonistic activity” value was 84 Δ %; the “x-fold (EC50)” value was 36.5 fold; the “x-fold (Emax)” value amounted to 1.3 fold.

B7: K-(D-1-Nal)-FwLL-NH2 (peptide)
peptide: KXFXLL
modifications: 1-naphthyl-D-alanine (D-1-Nal) at 2; D-Trp at 4; C-terminal amide
Take B7: in assay [2], the “EC50, inverse agonistic activity” value was determined as 3.4 nM and the “Emax [Δ %], inverse agonistic activity” value is 64 Δ %. Further, in assay [3], the “EC50, inverse agonistic activity” value amounted to 3.4 nM and the “Emax [Δ %], inverse agonistic activity” value is 64 Δ %.

B8: K-(D-tBf)-FwLL-NH2 (peptide)
peptide: KXFXLL
modifications: tert-butyl-D-phenylalanine (D-tBf) at 2; D-Trp at 4; C-terminal amide
For B8, in assay [2], the “EC50, inverse agonistic activity” value is 624 nM and the “Emax [Δ %], inverse agonistic activity” value is 76 Δ %.

B9: K-(D-2-Nal)-FwLL-NH2 (peptide)
peptide: KXFXLL
modifications: 2-naphthyl-D-alanine (D-2-Nal) at 2; D-Trp at 4; C-terminal amide
B9: in assay [2], the “EC50, inverse agonistic activity” value was 161 nM and the “Emax [Δ %], inverse agonistic activity” value was 66 Δ %.

B10: K-(D-1-Nal)-(D-Phe)-wLL-NH2 (peptide)
peptide: KXXXLL
modifications: 1-naphthyl-D-alanine (D-1-Nal) at 2; D-Phe at 3; D-Trp at 4; C-terminal amide
As for B10, in assay [3], the “EC50, inverse agonistic activity” value was 120 nM; the “Emax [Δ %], inverse agonistic activity” value was 58 Δ %; the “x-fold (EC50)” value is 35.2 fold; the “x-fold (Emax)” value was 0.9 fold.

B11: KwFwLL-NH2 (peptide)
peptide: K[dW]F[dW]LL-NH2
modifications: N-terminus assumed
SMILES: CC(C)C[C@H](NC(=O)[C@H](CC(C)C)NC(=O)[C@@H](Cc1c[nH]c2ccccc12)NC(=O)[C@H](Cc1ccccc1)NC(=O)[C@@H](Cc1c[nH]c2ccccc12)NC(=O)[C@@H](N)CCCCN)C(N)=O
For B11, in assay [2], the “EC50, inverse agonistic activity” value is 45.6 nM and the “Emax [Δ %], inverse agonistic activity” value is 37 Δ %.

B12: K-(D-1-Nal)-(L-Cha)-wLL-NH2 (peptide)
peptide: KXXXLL
modifications: 1-naphthyl-D-alanine (D-1-Nal) at 2; 3-cyclohexyl-L-alanine (L-Cha) at 3; D-Trp at 4; C-terminal amide
In the case of B12, in assay [3], the “EC50, inverse agonistic activity” value worked out at 96.8 nM; the “Emax [Δ %], inverse agonistic activity” value is 85 Δ %; the “x-fold (EC50)” value is 28.5 fold; the “x-fold (Emax)” value was 1.3 fold.

B13: K-(D-Bip)-FwLL-NH2 (peptide)
peptide: KXFXLL
modifications: 4,4'-biphenyl-D-alanine (D-Bip) at 2; D-Trp at 4; C-terminal amide
Turning to B13, in assay [2], the “EC50, inverse agonistic activity” value worked out at 184 nM and the “Emax [Δ %], inverse agonistic activity” value is 82 Δ %.

B14: K-(D-1-Nal)-(L-Phg)-wLL-NH2 (peptide)
peptide: K[d1Nal][Phg][dW]LL-NH2
modifications: N-terminus assumed
SMILES: CC(C)C[C@H](NC(=O)[C@H](CC(C)C)NC(=O)[C@@H](Cc1c[nH]c2ccccc12)NC(=O)[C@@H](NC(=O)[C@@H](Cc1cccc2ccccc12)NC(=O)[C@@H](N)CCCCN)c1ccccc1)C(N)=O
In the case of B14, in assay [3], the “EC50, inverse agonistic activity” value is above 1000 nM and the “x-fold (EC50)” value was above 290 fold.

B15: K-(D-Bth)-FwLL-NH2 (peptide)
peptide: KXFXLL
modifications: beta-(3-benzothienyl)-D-alanine (D-Bth) at 2; D-Trp at 4; C-terminal amide
As to B15, the “Emax [Δ %], inverse agonistic activity” value in assay [2] is 81 Δ %.

B16: K-(D-Dip)-FwLL-NH2 (peptide)
peptide: KXFXLL
modifications: 3,3-diphenyl-D-alanine (D-Dip) at 2; D-Trp at 4; C-terminal amide
For the molecule B16, in assay [2], the “EC50, inverse agonistic activity” value was 13.1 nM and the “Emax [Δ %], inverse agonistic activity” value was 87 Δ %.
